Assay results published in patent US20250262210A1 (TRUSTEES OF COLUMBIA UNIVERSITY IN THE CITY OF NEW YORK, published 2025).

Legend:
ABR = target: T1, ABR (human, UniProt Q12979 1-859, limits assumed); experiment: IP/MS, LZTR1 R810W-FLAG, U87
T1 sequence (looked up): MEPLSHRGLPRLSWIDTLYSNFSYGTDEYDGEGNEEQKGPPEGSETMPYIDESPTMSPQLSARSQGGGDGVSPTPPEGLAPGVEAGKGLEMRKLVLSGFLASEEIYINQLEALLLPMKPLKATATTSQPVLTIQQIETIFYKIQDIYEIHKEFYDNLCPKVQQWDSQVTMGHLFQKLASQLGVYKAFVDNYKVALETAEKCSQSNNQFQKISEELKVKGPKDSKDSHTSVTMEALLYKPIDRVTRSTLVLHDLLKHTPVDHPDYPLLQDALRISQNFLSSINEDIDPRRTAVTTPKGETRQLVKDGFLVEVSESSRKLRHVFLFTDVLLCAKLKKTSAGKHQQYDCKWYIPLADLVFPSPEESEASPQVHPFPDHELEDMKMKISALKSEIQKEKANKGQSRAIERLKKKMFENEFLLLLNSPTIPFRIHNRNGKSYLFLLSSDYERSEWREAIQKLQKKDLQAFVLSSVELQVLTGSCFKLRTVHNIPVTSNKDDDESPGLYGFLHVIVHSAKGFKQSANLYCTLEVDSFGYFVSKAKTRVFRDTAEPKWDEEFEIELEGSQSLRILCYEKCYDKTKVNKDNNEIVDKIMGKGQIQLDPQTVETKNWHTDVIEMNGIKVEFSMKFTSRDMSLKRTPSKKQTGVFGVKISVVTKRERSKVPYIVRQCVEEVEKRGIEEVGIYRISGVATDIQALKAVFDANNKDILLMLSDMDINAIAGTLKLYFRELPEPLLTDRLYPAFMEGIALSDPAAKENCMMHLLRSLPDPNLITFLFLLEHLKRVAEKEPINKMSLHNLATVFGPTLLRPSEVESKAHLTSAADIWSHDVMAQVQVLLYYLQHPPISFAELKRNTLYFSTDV
Procedure, shortened: (§1)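 Extracted peptides in 3% acetonitrile/0.1% formic acid ran on a 50 cm C18 column into an Orbitrap Fusion, with MaxQuant identification and spectral counting.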

ELP1 = target: T2, ELP1 (human, UniProt O95163 1-1332); experiment: IP/MS, LZTR1 R810W-FLAG, U87
T2 sequence (looked up): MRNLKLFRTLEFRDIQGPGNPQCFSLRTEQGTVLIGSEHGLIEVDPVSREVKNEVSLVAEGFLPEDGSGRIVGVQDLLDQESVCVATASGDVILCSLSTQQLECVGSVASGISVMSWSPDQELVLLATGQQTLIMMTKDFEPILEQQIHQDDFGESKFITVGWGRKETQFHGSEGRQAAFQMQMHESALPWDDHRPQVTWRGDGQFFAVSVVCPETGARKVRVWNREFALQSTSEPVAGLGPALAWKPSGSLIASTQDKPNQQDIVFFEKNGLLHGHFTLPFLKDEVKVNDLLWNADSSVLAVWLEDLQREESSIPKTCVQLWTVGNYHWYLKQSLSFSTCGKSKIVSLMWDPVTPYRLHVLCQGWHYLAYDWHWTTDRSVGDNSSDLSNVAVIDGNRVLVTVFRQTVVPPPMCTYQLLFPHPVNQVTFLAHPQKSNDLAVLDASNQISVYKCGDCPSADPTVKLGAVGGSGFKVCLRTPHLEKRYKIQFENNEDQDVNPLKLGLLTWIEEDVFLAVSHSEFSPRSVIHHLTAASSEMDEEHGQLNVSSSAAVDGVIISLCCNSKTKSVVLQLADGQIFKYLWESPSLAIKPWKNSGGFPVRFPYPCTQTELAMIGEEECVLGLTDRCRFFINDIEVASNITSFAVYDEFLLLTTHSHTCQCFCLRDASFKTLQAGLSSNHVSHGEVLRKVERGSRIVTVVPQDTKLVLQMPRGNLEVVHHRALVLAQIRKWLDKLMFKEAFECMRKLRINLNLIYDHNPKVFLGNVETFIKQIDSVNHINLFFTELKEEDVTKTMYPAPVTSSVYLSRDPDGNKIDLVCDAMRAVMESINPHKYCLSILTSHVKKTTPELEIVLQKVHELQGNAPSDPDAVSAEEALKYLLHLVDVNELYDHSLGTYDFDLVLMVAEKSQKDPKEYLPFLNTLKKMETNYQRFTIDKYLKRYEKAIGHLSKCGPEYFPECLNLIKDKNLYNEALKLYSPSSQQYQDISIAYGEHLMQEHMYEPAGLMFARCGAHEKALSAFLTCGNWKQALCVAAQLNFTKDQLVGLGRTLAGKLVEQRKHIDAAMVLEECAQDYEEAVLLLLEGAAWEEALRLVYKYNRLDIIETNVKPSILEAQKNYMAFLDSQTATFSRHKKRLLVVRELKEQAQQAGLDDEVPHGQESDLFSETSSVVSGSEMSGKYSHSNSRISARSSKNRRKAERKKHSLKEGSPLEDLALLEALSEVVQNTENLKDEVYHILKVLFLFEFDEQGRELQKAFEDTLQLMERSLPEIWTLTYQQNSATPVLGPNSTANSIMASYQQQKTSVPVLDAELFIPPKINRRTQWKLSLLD
Procedure, shortened: as §1

B1: LZTR1 R810W-FLAG (other, human, UniProt Q8N653 1-840, looked up)
chain: MAGPGSTGGQIGAAALAGGARSKVAPSVDFDHSCSDSVEYLTLNFGPFETVHRWRRLPPCDEFVGARRSKHTVVAYKDAIYVFGGDNGKTMLNDLLRFDVKDCSWCRAFTTGTPPAPRYHHSAVVYGSSMFVFGGYTGDIYSNSNLKNKNDLFEYKFATGQWTEWKIEGRLPVARSAHGATVYSDKLWIFAGYDGNARLNDMWTIGLQDRELTCWEEVAQSGEIPPSCCNFPVAVCRDKMFVFSGQSGAKITNNLFQFEFKDKTWTRIPTEHLLRGSPPPPQRRYGHTMVAFDRHLYVFGGAADNTLPNELHCYDVDFQTWEVVQPSSDSEVGGAEVPERACASEEVPTLTYEERVGFKKSRDVFGLDFGTTSAKQPTQPASELPSGRLFHAAAVISDAMYIFGGTVDNNIRSGEMYRFQFSCYPKCTLHEDYGRLWESRQFCDVEFVLGEKEECVQGHVAIVTARSRWLRRKITQARERLAQKLEQEAAPVPREAPGVAAGGARPPLLHVAIREAEARPFEVLMQFLYTDKIKYPRKGHVEDVLLIMDVYKLALSFQLCRLEQLCRQYIEASVDLQNVLVVCESAARLQLSQLKEHCLNFVVKESHFNQVIMMKEFERLSSPLIVEIVRRKQQPPPRTPLDQPVDIGTSLIQDMKAYLEGAGAEFCDITLLLDGHPRPAHKAILAARSSYFEAMFRSFMPEDGQVNISIGEMVPSRQAFESMLRYIYYGEVNMPPEDSLYLFAAPYYYGFYNNRLQAYCKQNLEMNVTVQNVLQILEAADKTQALDMKRHCLHIIVHQFTKVSKLPTLWSLSQQLLLDIIDSLASHISDKQCAELGADI
notes: Stably expressed in U87 cells by lentivirus; also called LZTR1-FLAG-R810W; LZTR1 RW; not shown: FLAG tag
ABR
  binding result: binds
ELP1
  binding result: binds
